US20080207488A1, “Method for Detecting Peptides Comprising a Cross-B Structure” (priority 2005, published 2008)

What was measured:
[1] = target: tissue-type plasminogen activator (tPA) (human) (UniProt P00750); assay: cell-based or functional assay
[2] = target: human coagulation factor VIII isolated from healthy volunteers (Aafact) (human) (UniProt P00451); assay: ELISA, therapeutic coated, tPA concentration series, one-site binding fit
Sequence of human coagulation factor VIII isolated from healthy volunteers (Aafact) (human) (P00451 20-2351): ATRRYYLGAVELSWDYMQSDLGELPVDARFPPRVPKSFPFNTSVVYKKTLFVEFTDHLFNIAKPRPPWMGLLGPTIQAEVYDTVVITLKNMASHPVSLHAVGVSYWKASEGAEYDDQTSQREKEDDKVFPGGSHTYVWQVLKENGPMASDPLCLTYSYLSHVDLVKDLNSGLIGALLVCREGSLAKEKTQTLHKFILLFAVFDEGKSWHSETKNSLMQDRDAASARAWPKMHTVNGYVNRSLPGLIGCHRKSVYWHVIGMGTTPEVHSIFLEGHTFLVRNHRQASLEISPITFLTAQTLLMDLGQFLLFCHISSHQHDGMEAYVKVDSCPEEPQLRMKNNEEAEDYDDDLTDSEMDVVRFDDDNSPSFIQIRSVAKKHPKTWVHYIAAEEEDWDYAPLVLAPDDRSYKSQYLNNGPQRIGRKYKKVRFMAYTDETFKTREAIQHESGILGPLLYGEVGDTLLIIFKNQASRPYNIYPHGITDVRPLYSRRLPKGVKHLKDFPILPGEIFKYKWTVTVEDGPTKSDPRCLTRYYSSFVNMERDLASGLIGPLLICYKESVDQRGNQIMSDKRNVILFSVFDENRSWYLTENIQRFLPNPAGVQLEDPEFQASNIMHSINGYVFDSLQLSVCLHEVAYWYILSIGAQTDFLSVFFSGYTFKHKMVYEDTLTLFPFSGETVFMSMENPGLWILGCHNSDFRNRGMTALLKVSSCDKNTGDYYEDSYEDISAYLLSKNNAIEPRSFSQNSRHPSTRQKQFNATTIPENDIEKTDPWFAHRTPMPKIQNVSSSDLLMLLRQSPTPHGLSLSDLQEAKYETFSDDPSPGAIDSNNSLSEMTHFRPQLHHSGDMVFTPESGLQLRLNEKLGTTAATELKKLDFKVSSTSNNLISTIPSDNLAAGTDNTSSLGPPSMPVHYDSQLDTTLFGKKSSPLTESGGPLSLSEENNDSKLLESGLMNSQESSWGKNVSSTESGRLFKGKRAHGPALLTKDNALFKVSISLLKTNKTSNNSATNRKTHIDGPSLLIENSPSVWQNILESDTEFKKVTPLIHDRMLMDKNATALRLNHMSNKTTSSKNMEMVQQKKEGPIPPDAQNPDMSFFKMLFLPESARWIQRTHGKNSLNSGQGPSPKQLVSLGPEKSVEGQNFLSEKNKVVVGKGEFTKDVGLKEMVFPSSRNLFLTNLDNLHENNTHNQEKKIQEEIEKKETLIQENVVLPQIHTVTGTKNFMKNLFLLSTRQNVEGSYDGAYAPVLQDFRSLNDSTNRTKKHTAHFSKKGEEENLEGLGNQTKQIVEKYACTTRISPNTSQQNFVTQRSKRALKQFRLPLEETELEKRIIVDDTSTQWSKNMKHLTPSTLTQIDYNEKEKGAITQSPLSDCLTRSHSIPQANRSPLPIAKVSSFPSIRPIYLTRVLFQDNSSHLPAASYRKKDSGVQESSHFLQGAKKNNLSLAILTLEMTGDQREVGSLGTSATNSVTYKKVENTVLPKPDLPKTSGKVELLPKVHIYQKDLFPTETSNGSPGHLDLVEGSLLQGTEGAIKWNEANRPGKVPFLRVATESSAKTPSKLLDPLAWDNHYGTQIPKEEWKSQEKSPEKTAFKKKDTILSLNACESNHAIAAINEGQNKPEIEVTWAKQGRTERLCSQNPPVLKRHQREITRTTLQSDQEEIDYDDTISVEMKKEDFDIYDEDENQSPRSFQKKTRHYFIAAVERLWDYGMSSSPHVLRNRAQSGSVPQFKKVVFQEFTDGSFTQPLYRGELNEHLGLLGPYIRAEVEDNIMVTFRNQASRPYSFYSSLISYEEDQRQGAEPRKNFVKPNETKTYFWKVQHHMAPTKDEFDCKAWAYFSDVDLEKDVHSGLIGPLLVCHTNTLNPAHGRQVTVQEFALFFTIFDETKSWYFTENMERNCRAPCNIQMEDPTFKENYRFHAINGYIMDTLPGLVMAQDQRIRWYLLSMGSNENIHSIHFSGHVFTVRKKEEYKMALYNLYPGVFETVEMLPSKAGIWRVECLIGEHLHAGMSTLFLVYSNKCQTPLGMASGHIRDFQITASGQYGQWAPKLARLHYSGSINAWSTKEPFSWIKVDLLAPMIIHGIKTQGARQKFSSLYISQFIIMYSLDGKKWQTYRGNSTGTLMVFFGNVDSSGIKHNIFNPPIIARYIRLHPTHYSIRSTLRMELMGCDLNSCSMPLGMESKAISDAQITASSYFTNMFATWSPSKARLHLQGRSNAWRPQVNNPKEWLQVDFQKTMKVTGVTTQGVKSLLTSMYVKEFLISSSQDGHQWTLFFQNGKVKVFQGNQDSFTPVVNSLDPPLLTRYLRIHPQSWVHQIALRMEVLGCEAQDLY

| Substance | tPA activation, Max. Activation (%) [1] [%] | Bmax (OD450 nm) [2] [OD450 nm] | Kd [2] [µM] |
| --- | --- | --- | --- |
| Epoietin Alfa (from UniProt P01588 28-192) (ligand) | 0 |  |  |
| Etanercept (Enbrel) (Fc fusion) | 0 |  |  |
| human coagulation factor VIII isolated from healthy volunteers (Aafact) (from UniProt P00451 20-2351) | 4.22 |  |  |
| human glucagon (Glucagen) (from UniProt P01275 53-81) (peptide) | 11.2 |  |  |
| human-murine chimeric monoclonal antibody (Remicade-infliximab) | 0 |  |  |
| rapid acting human insulin analogue (NovoRapid Flexpen) (from UniProt P01308 90-110; P01308 25-54) (ligand) | 70.9 |  |  |
| tissue-type plasminogen activator (tPA) (from UniProt P00750 36-562) (enzyme) |  | 0.54 | 0.23 |
